Data published in paper PMC5606208.

Key:
[1] = target: Phos-HP1α (HP1α co-expressed with CKII, phosphorylated in the N-terminus and hinge) (human); experiment: native MS
[2] = target: WT HP1α (human heterochromatin protein 1 alpha, unmodified) (human); experiment: AUC

Row | stoichiometry N [1] | Kd [2] [nM] | Substance
1 | 2 |  | Phos-HP1α (HP1α co-expressed with CKII, phosphorylated in the N-terminus and hinge) (natural protein)
2 |  | 1120 | WT HP1α (human heterochromatin protein 1 alpha, unmodified) (natural protein)
